The labels stand for the following.
T1: FcgRIIaR (human, UniProt P12318 34-217)
T1 construct: extracellular domain; Soluble extracellular domain with C-terminal His tag; also called FcγRIIa R; FcγRIIa type R; not shown: His tag attached to the C terminus
T1 sequence (looked up): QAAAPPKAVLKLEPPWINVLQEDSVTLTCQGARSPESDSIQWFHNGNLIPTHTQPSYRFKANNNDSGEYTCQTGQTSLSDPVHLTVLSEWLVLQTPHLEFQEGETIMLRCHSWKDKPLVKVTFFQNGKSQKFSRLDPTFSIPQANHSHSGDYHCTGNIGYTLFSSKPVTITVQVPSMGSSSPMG

T2: FcgRIIaH (human, UniProt P12318 34-217)
T2 construct: extracellular domain; Soluble extracellular domain with C-terminal His tag; also called FcγRIIa H; FcγRIIa type H; not shown: His tag attached to the C terminus
T2 sequence (looked up): T1 sequence (looked up) with R134H

T3: FcgRIIb (human, UniProt P31994 43-217)
T3 construct: extracellular domain; Soluble extracellular domain with C-terminal His tag; also called FcγRIIb; CD32B; not shown: His tag attached to the C terminus
T3 sequence (looked up): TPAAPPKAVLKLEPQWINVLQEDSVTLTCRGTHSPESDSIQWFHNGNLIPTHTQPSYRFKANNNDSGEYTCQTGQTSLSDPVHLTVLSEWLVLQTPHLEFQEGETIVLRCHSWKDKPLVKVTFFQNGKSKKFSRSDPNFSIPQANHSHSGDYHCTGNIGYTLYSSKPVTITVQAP

B1: H240-Kn120/H240-Hl068/L73-k0 (antibody, human IgG1, kappa)
heavy 1: QDQLVQSGAEVKKPGASVKVSCKASGFNIKDTYIQWVRQAPGQGLEWMGRIDPLRKQTKYREKFEGRVTITADTSTNTAYMELSSLRSEDTAVYYCVRSGREFDYWGQGTLVTVSSASTKGPSVFPLAPSSKSTSGGTAALGCLVKDYFPEPVTVSWNSGALTSGVHTFPAVLQSSGLYSLSSVVTVPSSSLGTQTYICNVNHKPSNTKVDKKVEPKSCDKTHTCPPCPAPEYYWGPMVFLFPPKPKDTLMISRTPEVTCVVVDVSDEDPEVKFNWYVDGVEVHNAKTKPREEQYNATYRVVSVLTVLHQDWLNGKEYKCKVSNKDLPAPIEKTISKAKGQPREPQVCTLPPSRDELTKNQVSLWCLVKGFYPSDIAVEWESNGQPENNYKTTPPVLDSDGSFFLYSKLTVDKSRWQQGNVFSCSVMHEALHNHYTQKSLSLSP
heavy 2: QDQLVQSGAEVKKPGASVKVSCKASGFNIKDTYIQWVRQAPGQGLEWMGRIDPLRKQTKYREKFEGRVTITADTSTNTAYMELSSLRSEDTAVYYCVRSGREFDYWGQGTLVTVSSASTKGPSVFPLAPSSKSTSGGTAALGCLVKDYFPEPVTVSWNSGALTSGVHTFPAVLQSSGLYSLSSVVTVPSSSLGTQTYICNVNHKPSNTKVDKKVEPKSCDKTHTCPPCPAPELLGGPSVFLFPPKPKDTLMISRTPEVTCVVVDVSHEEPEVKFNWYVDGVEVHNAKTKPREEQYNSTYRVVSVLTVLHQDWLNGKEYKCKVSNDALPKPIEETISKAKGQPREPQVYTLPPSRCELTKNQVSLSCAVKGFYPSDIAVEWESNGQPENNYKTTPPVLDSDGSFFLVSKLTVDKSRWQQGNVFSCSVMHEALHNHYTQKSLSLSP
light: DIQMTQSPSSLSASVGDRVTITCRASQDIHKYIAWYQQKPGQAPRLLIQYTSTLQPGVPSRFSGSGSGTDYTFTISSLQPEDIATYYCLQYEQLRTFGGGTKVEIKRTVAAPSVFIFPPSDEQLKSGTASVVCLLNNFYPREAKVQWKVDNALQSGNSQESVTEQDSKDSTYSLSSTLTLSKADYEKHKVYACEVTHQGLSSPVTKSFNRGEC
notes: Heterodimerized anti-epiregulin IgG1 antibody (knobs-into-holes); also called H240-Kn120/H240-HI068/L73-k0
B2: H240-Kn138/H240-Hl068/L73-k0 (antibody, human IgG1, kappa)
heavy 1: B1 heavy 1 with L327W
heavy 2: B1 heavy 2
light: B1 light
notes: Heterodimerized anti-epiregulin IgG1 antibody; L328W introduced into H240-Kn120; also called H240-Kn138/H240-HI068/L73-k0
B3: H240-Kn120/H240-Hl174/L73-k0 (antibody, human IgG1, kappa)
heavy 1: B1 heavy 1
heavy 2: B1 heavy 2 with I331E
light: B1 light
notes: Heterodimerized anti-epiregulin IgG1 antibody; I332E introduced into H240-Hl068; also called H240-Kn120/H240-HI174/L73-k0
B4: H240-Kn120/H240-Hl182/L73-k0 (antibody, human IgG1, kappa)
heavy 1: B1 heavy 1
heavy 2: B1 heavy 2 with A230H
light: B1 light
notes: Heterodimerized anti-epiregulin IgG1 antibody; A231H introduced into H240-Hl068; also called H240-Kn120/H240-HI182/L73-k0
B5: H240-Kn120/H240-Hl150/L73-k0 (antibody, human IgG1, kappa)
heavy 1: B1 heavy 1
heavy 2: B1 heavy 2 with I331T
light: B1 light
notes: Heterodimerized anti-epiregulin IgG1 antibody; I332T introduced into H240-Hl068; also called H240-Kn120/H240-HI150/L73-k0
B6: H240-Kn120/H240-Hl170/L73-k0 (antibody, human IgG1, kappa)
heavy 1: B1 heavy 1
heavy 2: B1 heavy 2 with L327A
light: B1 light
notes: Heterodimerized anti-epiregulin IgG1 antibody; L328A introduced into H240-Hl068; also called H240-Kn120/H240-HI170/L73-k0
B7: H240-Kn138/H240-Hl147/L73-k0 (antibody, human IgG1, kappa)
heavy 1: B1 heavy 1 with L327W
heavy 2: B1 heavy 2 with L327W
light: B1 light
notes: Anti-epiregulin IgG1 antibody; L328W introduced into both H chains of H240-Kn120/H240-Hl068/L73-k0; also called H240-Kn138/H240-HI147/L73-k0

Where a chain is given by its changes, count along the chain named. Names may count otherwise.

T4 sequence (P12314 16-292): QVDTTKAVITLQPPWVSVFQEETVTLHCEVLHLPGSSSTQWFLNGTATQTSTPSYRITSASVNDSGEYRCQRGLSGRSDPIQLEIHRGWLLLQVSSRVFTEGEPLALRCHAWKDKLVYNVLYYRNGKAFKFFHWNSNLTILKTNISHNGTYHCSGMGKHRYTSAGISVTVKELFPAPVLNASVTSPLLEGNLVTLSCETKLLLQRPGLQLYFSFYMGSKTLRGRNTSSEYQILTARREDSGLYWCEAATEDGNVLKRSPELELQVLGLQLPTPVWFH
T5 sequence (P08637 17-208): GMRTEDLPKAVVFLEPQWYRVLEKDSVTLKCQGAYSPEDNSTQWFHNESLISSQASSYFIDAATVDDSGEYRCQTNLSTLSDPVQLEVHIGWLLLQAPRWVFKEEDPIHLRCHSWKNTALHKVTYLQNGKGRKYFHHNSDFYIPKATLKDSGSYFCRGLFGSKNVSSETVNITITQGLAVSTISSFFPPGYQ
T6 sequence (P08637 17-208 F176V limits assumed): as the sequence (P08637 17-208) above, with F160V counted along it

One assay concerns the target T4, FcgRIa (human, UniProt P12314 16-292).
T4 construct: extracellular domain; Soluble extracellular domain with C-terminal His tag, expressed in FreeStyle293 cells; also called FcγRIa; FcγRI; not shown: His tag attached to the C terminus
The assay can be described thus: SPR (Biacore); KD of H240-Kn120/H240-Hl068/L73-k0 divided by KD of this antibody. Here is the method:
(§1) Analysis of interaction between obj ective antibody and the FcγR was carried out using Biacore T100 (GE Healthcare), Biacore T200, Biacore A100, and Biacore 4000.
As to B1, the “Relative KD” value turned out to be 1.
B2: the “Relative KD” value stood at 1.
As to B3, the “Relative KD” value stood at 1.1.
Still for that read-out and setting: as for B4, the figure is 0.9; as for B5, 0.4.
As to B6, the “Relative KD” value was 0.8.
With B7, the “Relative KD” value is 0.5.

Another assay addresses T5, FcgRIIIaF (human, UniProt P08637 17-208).
T5 construct: extracellular domain; Soluble extracellular domain with C-terminal His tag; polymorphic site made after J. Clin. Invest; also called FcγRIIIa F; not shown: His tag attached to the C terminus
Described as above. Here is the method: as §1
Take B1: the “Relative KD” value is 1.
In the case of B2, the “Relative KD” value was 0.6.
On the same count and under the same terms, as for B3, the figure is 4.3; as for B4, 0.7; as for B5, 0.7.
On to B6, for which the “Relative KD” value is 0.6.
Same read-out and setting: the result for B7 reads 0.1.

In a further assay the target is T1, FcgRIIaR. The description is as above. Here is the method: as §1
Take B1: the “Relative KD” value came to 1.
As to B2, the “Relative KD” value worked out at 1.1.
Consider B3, for which the “Relative KD” value is 0.7.
In the case of B4, the “Relative KD” value stood at 0.5.
As for B5, the “Relative KD” value was found to be 1.
The same measure, in the same setting: as for B6, the figure is 2.3.
In the case of B7, the “Relative KD” value is 1.8.

Another assay has as its target T6, FcgRIIIaV (human, UniProt P08637 17-208).
T6 construct: extracellular domain; Soluble extracellular domain with C-terminal His tag; polymorphic site made after J. Clin. Invest; also called FcγRIIIa V; not shown: His tag attached to the C terminus
The assay is described as above. Here is the method: as §1
As for B1, the “Relative KD” value worked out at 1.
In the case of B2, the “Relative KD” value worked out at 0.8.
As to B3, the “Relative KD” value came out at 10.
Consider B4, for which the “Relative KD” value is 1.2.
For B5, the “Relative KD” value is 0.6.
As for B6, the “Relative KD” value is 0.4.
For B7, the “Relative KD” value worked out at 0.

A further assay concerns the target T2, FcgRIIaH. Described as above. Here is the method:
as §1
In the case of B1, the “Relative KD” value was found to be 1.
For the molecule B2, the “Relative KD” value amounted to 1.6.
On to B3, for which the “Relative KD” value worked out at 0.7.
In the case of B4, the “Relative KD” value came to 0.5.
B5: the “Relative KD” value was 1.2.
B6: the “Relative KD” value is 2.3.
The same measure, in the same setting: the result for B7 reads 0.3.

In the next assay the target is T3, FcgRIIb. The assay is described as above. Here is the method:
as §1
In the case of B1, the “Relative KD” value stood at 1.
Same read-out and setting: the result for B2 reads 1.2; that for B3, 1.2; that for B4, 0.6.
With B5, the “Relative KD” value came out at 1.5.
Take B6: the “Relative KD” value is 2.2.
As to B7, the “Relative KD” value was found to be 1.4.

For another assay, the target named is T4, FcgRIa. The assay can be described thus: SPR (Biacore), antibody captured, FcgR as analyte. Here is the method:
(§2) Analysis of interaction between obj ective antibody and the FcγR was carried out using Biacore T100 (GE Healthcare), Biacore T200, Biacore A100, and Biacore 4000. HBS-EP+ (GE Healthcare) was used as the running buffer, and the measurement temperature was set to 25° C. Chips produced by immobilizing the antigen peptide by the amine coupling method to a Series S sensor Chip CM5 (GE Healthcare), chips produced by allowing preliminarily biotinylated antigen peptides to interact with and immobilize onto a Series S Sensor Chip SA (certified) (GE Healthcare), chips produced by immobilizing Protein L (ACTIGEN, BioVision) to Series S Sencor Chip CM5 (GE Healthcare), or chips produced by immobilizing Protein A/G (Thermo Scientific) to Series S Sencor Chip CM5 (GE Healthcare) were used. Antibodies of interest were captured onto these chips, and allowed to interact to each FcγR diluted with running buffer. To regenerate and repeatedly use the chip, the antibodies captured onto the chip were washed off by reacting 10 mM glycine-HCl, pH 1.5.
B1 came in with a Kd of 0.16 nM.
As to B2, the Kd amounted to 0.16 nM.
Same read-out and setting: the result for B3 reads 0.14 nM; that for B4, 0.18 nM.
For B5, the Kd amounted to 0.39 nM.
Consider B6, for which the Kd stood at 0.19 nM.
B7: the Kd came out at 0.31 nM.

In another assay the target is T5, FcgRIIIaF. Kind of assay: SPR (Biacore), antibody captured, FcgR as analyte. Here is the method: as §2
The molecule B1 displayed a Kd of 2.2 nM.
The same measure, in the same setting: as for B2, the figure is 3.7 nM.
Molecule B3 had a Kd of 0.51 nM.
B4 had a Kd of 3.1 nM.
Same read-out and setting: as for B5, the figure is 3 nM; as for B6, 3.9 nM; as for B7, 22 nM.

The next assay deals with T1, FcgRIIaR. Kind of assay: SPR (Biacore), antibody captured, FcgR as analyte. Here is the method:
as §2
B1 registered a Kd of 20 nM.
Consider B2, for which binding was characterised by a dissociation constant (Kd) of 19 nM.
The same measure, in the same setting: the result for B3 reads 30 nM.
The same measure, in the same setting: the result for B4 reads 40 nM.
For the molecule B5, the Kd was determined as 20 nM.
With B6, the Kd was determined as 8.6 nM.
In turn, B7 gave a Kd of 11 nM.

For the next assay, the target named is T6, FcgRIIIaV. Kind of assay: SPR (Biacore), antibody captured, FcgR as analyte. Here is the method: as §2
Turning to B1, binding was put at a Kd of 0.36 nM.
The same measure, in the same setting: the result for B2 reads 0.43 nM; that for B3, 0.036 nM.
The molecule B4 came in with a Kd of 0.29 nM.
Same read-out and setting: the result for B5 reads 0.57 nM; that for B6, 0.93 nM.
Take B7: binding was put at a Kd of 16 nM.

The next assay has as its target T2, FcgRIIaH. Kind of assay: SPR (Biacore), antibody captured, FcgR as analyte. Here is the method: as §2
B1 displayed a Kd of 41 nM.
With B2, the Kd was 25 nM.
Take B3: binding was put at a Kd of 55 nM.
As for B4, the affinity, expressed as Kd, was 77 nM.
Still for that read-out and setting: as for B5, the figure is 35 nM; as for B6, 18 nM.
On the same count and under the same terms, as for B7, the figure is 130 nM.

For another assay, the target named is T3, FcgRIIb. The assay can be described thus: SPR (Biacore), antibody captured, FcgR as analyte. Here is the method:
as §2
In turn, B1 showed a Kd of 150 nM.
B2 displayed a Kd of 130 nM.
B3 returned a Kd of 130 nM.
B4 displayed a Kd of 240 nM.
Molecule B5 yielded a Kd of 98 nM.
Same read-out and setting: the result for B6 reads 67 nM; that for B7, 110 nM.

These data come from patent US20180155451A1 (published 2018).
